The NTF2 design screens of Basanta et al. (2020)

Assay: protease stability score; higher = more stable; yeast display proteolysis, trypsin and chymotrypsin;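 further: relative to predicted unfolded state with 0 unfolded-like and 1 meaning tenfold more protease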

Sequence	protease stability score
SEFDRLSKEAVDILVHSLETGDWRSVSELFDPDYRLDVGDKRYHGREKVNEFMRHMGIKHVEIKRIHLQGDKAHIDSRMLVDGREFITHVIMEKVNGRWVITHISIE	1.01
SEFEEALKEHVKNIIRSVRTGDENELRRQLDPDAKLRINGQDYVGMEYVFHYLFEWRIHDTELKHIHVQGDKLTFNGETTGTYDGQKIHVRIRIIIWKVDGRWLSEHIDVI	1.66
SEFEEIAHIMIRLFHHAMRTGDEHKLMKNFDPNTRIDVNGVEEHGRENLERHLHHLSRHLRVNDFKVKDVKDVDGRVVIDGIWNGEINGQETDVEVEVIIIKINGQWYIQHLKIK	1.03
SEFEHRAHEVLEIMSNALHTGDEERMQKLMDPNVRIVIGDKENIGRETFMYWVKEIRFEIEIHIHRIDVINGRIHADTRLRIIIHYNGREHRDHFDVHFDIQKVDGRWVVHRIIVD	2.1
SEFEKDSEHAARVLMHELHTGDFESLHELADPNDRNSLHIGDKHWFDHGRHWVRKWFERFKNATLIVEDIRLDVQGDKVRMEVDGHLNINGKHYRVHLIFILRKINGKWHVQQVDIHVD	2.41
SEFENLQRLWLEILEHHSETGDERFMSRLADPNAKLLVNGKEFHGMEEVVEFIERLWEKFKNVRVEIHDFTVQGNKIDMDVILYYGEKVHRTEMHAVKYDGRWFMRELSIR	1.38
SEHDDLIRHYAERIRKSLLTGDEHDLTELLDPNTYFEVRIGDFTLKAHGWERVHEVLDMINENLGIKHDDIQHIEWYGDKIHIDTRVRIGDKEIHTEVIIVVINGKVSKIEHRVI	0.45
SEHDEDLENAWRVIKHSTETGDEETSRELIDPNARIDINGKDLHGREEISRIFSEWRVHHIEIKHVEHVGNKVHIDGHEDINVDGRRMETRIELIITKINGKWLVHSIRYI	0.53
SEHDEELERWARLILHLLYTGNEEELRKMMDPDVRLNVNGRELHGWKKAMELWRIIKEHLRIHHVDIHDIDVFDGRNHVDIRINTNINGQEYIYKTEIIIVIIDGRMRSHEVRVK	1.74
SEHDEELRHASEKLWHDILTGDWKSIKELADPNVRVIIWQGEKEINLHGREEVTRVIKEMGFKHTHIEHQSTINGRMIVDNHSNINGKRVHLHFVIEKINGRWFLHEMRIEFE	1.47
SEHDEHIEHLLKEIIEDIETGDWHHWRHLADPHTRMEVGDKEKHGWKVYFEILHRYRGARLEFKSVDVQGDKIHVETHVHVNGRSFDTELRFYIVNGKMQEVIIQFR	0.85
SEHDEHLQRNWERFLHHIETGDWRDHEENADPHARVHIGEFDLHGREKFSELFMRLGVKHIEIQRLIVQGDKITADTVVHYGDKRLKTNIFVTKINGRWQLHSIEMR	1.42
SEHDELLNRLSELLTHLILTGDWKTFSELADPNVLAITDINGRTRHHHGREHFLNLLEELLREFGIDHLWITHIDAFNGVSHTHVNIEVNGRTHELRLHIVIIDGKVHEVHFSFK	0.34
SEHDELVKRNLEEMIRAAETGDEEKLRQLMDPHVKLEVNGREFVGREHWERFFREVIHRFGVTRIEIILHRIHDIDGRIYVDGTEVYGDYFERSLWISLKVNGKWVITHQHIH	0.336
SEHDEMIHKIAKEIMEVLVTGNEEWLDKLVDPHMRLEFNGKDIHGREKLNELLRKFKNVKLEYHINSIEAWDGRTQVNGKVHIEYGDKSRIKDTRLHVLIWDGKIREMRVDHD	2.23
SEHDEQAEDWTRKHIHWFETGDEELLETLLDPNTRHIVDGQEYHGRENLRRMFHYLLSFMGIKYVRLTNHEVVGDKAHIHMTTNVNGQHTRLILHLIVINGRVHTIEIRVR	0.544
SEHDERRRRVLELWFHALHTGDEEKLQELMDPDARLDINGVKLHGRDKLIEFFREWRFKHVDIHDMDEFNGVVNIKIEHVEIYNGQHRRVETRIFLIKINGRWHFRHIELH	1.66
SEHDESIHRHFEKIHESIRTGDEELLRKFLDPNTLLVNEDEKVVGWEQWVEQVRRHLTELGAKHVSFSLHDRRFFDGRLHLDSRVIIEIGDKRLSLETEVINLKFNGRWIITSLTSS	1.14

Sequence	protease stability score
SEHDEYAKKVVEIIWKDMLTGDEDKFSEMADPDVRLDIGDKHHHGMEEMTEILTRVYKHIRIEDWRIRDIRHINGKAVVDGHTTIEIGDKRIHRRVELIVIVIDGRLKTLEYRVH	1.09
SEHDHHSEWMSRLMFEAWLTGDEDFIMHLADPNTRSHLHYGDKEVNLHGRESFKRMVEELHRELGANHRDLKEVRLQGDKSLLRLEVRVGDKRREQHIIIIIVNGRVKSITVEVR	0.874
SEHDKEMREWIKTLFELMYTGDWVILRELADPNAKFRQGDFTKIGREQYERHVRRHLDLLGHDNIEIHWEDVEIVGNYAVFHGHLTFNGKSTHVIIRVFVIDGRMKHEHVEIK	1.3
SEHDKFTREMSEMLIEALLTGDWRIFEELADPNMRFHQGEFHFHGREEVSHRMLELVDLLGADHYDVREIRFQGDKIHTHLEYYIGDKLFRVDLHAEKVNGKWHLTIVHVDSH	2.03
SEHDKVLRELINLLWEALATGDFDQLHKLLDPHVKLDIGEWHSHGRESFIKNWLDDIRRVKNVRYELRHMDVINGQAHLDIHESYDGVRYDSELIIFIIDGKIHEITVHIR	0.83
SEHDNLMKEKLTLMEHTLMTGDEEVWRELLDPEALTTVDGQHFHGREEVVKFLRKVRRRVDHITSIEIESIDPQGEKLHLDGRNRIKIDGREIELNVVIIMRKINGRWFLRSWNVV	1.22
SEHDRLAHEWMRVFLHSIWTGDEDTILKMIDPHMRLDIDGVTFHGRDDVREWFHHHRERVDHIKDVDIKDVRIFDGKAETDRIVHVQVDGKEVDEEVLVILIVIDGRVTSIIIEKR	1.12
SEHEDMFREMAELLLESLVTGDFRQLKRLADPHMRLKINGKDTHGREEFSRVFKELDDELGVDHIEIKHLRVQGDKIHIHGKMHFDGRWHERHVDVEIFNGVVRHHRVEIR	1.3
SEHEEASERMTRLTLHLFETGNEEVFNRLADPHTRVIINGQEHVGRETVIEFLKKERDELGADVLIIKDIDVERQGEKVEVIFHGEIKFNGRYYKVEIIIIYLKVDGKWFIESMKHIVK	2.37
SEHEEDARRIFERWINSVNTGDERLIYEMHDPHVRVEINGREFHGREEIHKLAHRIDHFKIHRIIERDVRLVNGRVELHGEIDYRFFFDGKELSSIHSLHMTLTKVNGRWSIEEERVK	0.39
SEHEEDFKKATHEILEIWETGDEHRMSEYLDPNTRLSIDGKNIHGREKVEEILRRHWERLGIDHLRIKDLRVHTIDGRMHLDILVRFHYNGVTIDVHLHFNLIKIDGKWYIRSILEIDR	0.418
SEHEEDLERFAREWIHIFKTGDFKMFNKLADPNVRVHINGKDNHGMEQWKHLKDRHEKELGVDRVDIHVDDVRFIGDKIEMDVTVRQGEFSTRWHVELIVVDGRLKHVSFHVR	1.16
SEHEEEARKASQESLHDLKTGDEDSFERLLDPNTRVIVLFDGREIIHVGREEVTRFISEWLKRYKGMRIEMQDVRVIDGRIDIHLKTDVDGKDHRLDIHSEKINGQWFLKSIFVDVH	1.95
SEHEEELHKFFEEFLKAVETGDWRRLMELIDPHARLHIHQGEKEDHDHGRKFLKEFLKRYPNLRIQVTSLRIDVIDGVAIIILRGHDDVNGVELHSTIRIVVTKVNGQWRVEEVEIRIR	1.38
SEHEEESHIAFEIYQKWVQTGDWEQLDHNFDPDTRVEINGVEHVGMEHFHELEKRLHEHLGISKINSHVKHFEIFDGRLELFTIMEFNGRRIRTHHIAHKVNGRWRIKSIRFE	1.43
SEHEEEVKHFIELIVHFLKTGDEDHLAKMADPHVRLHIGDKEFHGREDFSKWVHLLLHHWRLKTFILRRVHVQGEKAHIDGQLDFDVDGKKTLLDVHLTVRKIDGRWFIETVIDG	2.35
SEHEEHIHKLMREWIEALLTGDEEHIEHLVDPHDRLNIDGRHYHGRENATKALHQKREQIRIEHIRVDDVKFYGDKVHVEMTVHGNINGKRIEIDTRFIIVVIDGVLRSFEFRHK	0.122
SEHEEHIKHLAEEWIRLVLTGNEEIIDHLFDPNVRVEIDGREMIGREKMNEWMRHVLRHWRTHIVIRRMTAIGDKAHSDGELILHVGDKTIRTKVHFHLVIIDGRIHEVSVDIR	1.58
